Laboratory results published in article PMC5159498, “IQGAP1 Interaction with RHO Family Proteins Revisited” (The Journal of Biological Chemistry, 2016).
Where a chain is given by its changes, count along the chain named.

Columns and labels:
Conditions in all cases: both partners purified
[1] = biological target: T1, IQGAP1 GRD1-RGCT wild type (aa 877-1558) (human, UniProt P46940 877-1558); test: fluorescence polarisation; IQGAP1 variant titrated to mGppNHp-bound RHO protein (1 μM); equilibrium Kd (eKd), quadratic fit; 30 mM Tris/HCl pH 7.5, 150 mM NaCl, 5 mM MgCl2, 3 mM DTT, 25 °C
T1 construct: human IQGAP1, GRD and RGCT domains, lacks the last 99 amino acids, aa 877-1558; also called GRD1-RGCT^WT; IQGAP1^877-1558
T1 sequence (looked up): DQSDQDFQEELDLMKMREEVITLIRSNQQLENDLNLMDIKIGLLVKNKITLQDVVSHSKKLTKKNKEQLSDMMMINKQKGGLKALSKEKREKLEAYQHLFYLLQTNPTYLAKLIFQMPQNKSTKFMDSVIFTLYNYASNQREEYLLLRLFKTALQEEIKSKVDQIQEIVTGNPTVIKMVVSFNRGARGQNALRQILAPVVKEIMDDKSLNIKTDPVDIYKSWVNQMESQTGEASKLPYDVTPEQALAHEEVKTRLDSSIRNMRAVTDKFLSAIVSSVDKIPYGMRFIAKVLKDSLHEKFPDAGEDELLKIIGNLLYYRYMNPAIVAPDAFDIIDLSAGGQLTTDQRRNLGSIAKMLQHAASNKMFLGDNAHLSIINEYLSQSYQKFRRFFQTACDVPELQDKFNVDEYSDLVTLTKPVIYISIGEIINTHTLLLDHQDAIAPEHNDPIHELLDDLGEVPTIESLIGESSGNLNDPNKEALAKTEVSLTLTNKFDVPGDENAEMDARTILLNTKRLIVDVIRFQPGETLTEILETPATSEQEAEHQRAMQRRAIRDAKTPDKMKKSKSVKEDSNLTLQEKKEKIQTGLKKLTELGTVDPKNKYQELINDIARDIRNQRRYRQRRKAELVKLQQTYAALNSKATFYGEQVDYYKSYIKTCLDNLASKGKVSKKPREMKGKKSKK

[2] = biological target: T2, IQGAP1 GRD1-RGCT S1443E (aa 877-1558) (human, UniProt P46940 877-1558, S1443E); test: as above
T2 construct: human IQGAP1 aa 877-1558 with the phosphomimetic mutation S1443E (printed as S1143E in the methods, S1443E everywhere else), from the vector pET46 EkLIC; source: E. coli (pLysS BL21(DE3), CodonPlusRIL or BL21(Rosetta)), purified (Ni-NTA, gel filtration)
T2 sequence (looked up): T1 sequence (looked up) with S567E

[3] = biological target: T3, IQGAP1 GRD1-CT (aa 863-1657) (human, UniProt P46940 863-1657); test: stopped-flow fluorometry; tGppNHp (tamra-GppNHp)-bound CDC42 or CDC42 Q61L (0.2 μM) rapidly mixed with IQGAP1 variant (2-10 μM GRD1-CT for Q61L); Kd = koff/kon; 30 mM Tris-HCl pH 7.5, 10 mM KH2PO4/K2HPO4, 5 mM MgCl2, 3 mM DTT
T3 construct: human IQGAP1, GRD, RGCT and CT domains, aa 863-1657; The GST tag was cleaved 'if needed'; also called C-terminal half of IQGAP1; C-terminal 795 amino acids of IQGAP1
T3 sequence (looked up): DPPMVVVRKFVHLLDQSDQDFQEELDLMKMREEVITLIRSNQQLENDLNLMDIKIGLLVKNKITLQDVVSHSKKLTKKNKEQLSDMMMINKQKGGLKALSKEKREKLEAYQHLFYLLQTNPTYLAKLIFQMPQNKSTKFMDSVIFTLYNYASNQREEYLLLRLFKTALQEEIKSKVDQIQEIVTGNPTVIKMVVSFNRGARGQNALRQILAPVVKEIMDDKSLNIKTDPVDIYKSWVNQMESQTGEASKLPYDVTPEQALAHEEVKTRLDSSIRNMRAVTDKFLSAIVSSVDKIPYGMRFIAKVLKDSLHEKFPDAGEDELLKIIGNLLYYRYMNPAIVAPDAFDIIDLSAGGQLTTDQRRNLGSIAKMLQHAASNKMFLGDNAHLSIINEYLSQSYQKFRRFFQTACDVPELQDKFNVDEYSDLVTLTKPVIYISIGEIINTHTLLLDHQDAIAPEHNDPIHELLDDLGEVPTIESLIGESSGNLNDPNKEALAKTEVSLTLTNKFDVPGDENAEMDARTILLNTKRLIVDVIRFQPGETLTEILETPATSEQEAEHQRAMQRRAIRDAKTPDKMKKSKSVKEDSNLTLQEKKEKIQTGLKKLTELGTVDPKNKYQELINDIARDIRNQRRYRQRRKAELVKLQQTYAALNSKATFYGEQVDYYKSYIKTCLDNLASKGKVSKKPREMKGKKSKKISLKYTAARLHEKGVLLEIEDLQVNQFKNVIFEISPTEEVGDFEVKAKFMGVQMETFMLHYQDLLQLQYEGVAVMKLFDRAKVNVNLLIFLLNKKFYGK

- Kd [1]: 4.6 µM
- Kd [2]: 16.3 µM
- Kd [3]: 0.38 µM
B1: CDC42 (aa 1-178) (domain or fragment)
chain: not shown
notes: human CDC42, C-terminally truncated, aa 1-178; Loaded non-covalently with mGppNHp, tGppNHp, mGDP or non-fluorescent GppNHp; the nucleotide is named in the format of each assay; also called CDC42^WT; CDC42-mGppNHp
